Source: IntAct's records for PubMed 16814718

B1: Recombination protein 107 (Saccharomyces cerevisiae), P21651 (parent)
chain: MVARGRTDEISTDVSEANSEHSLMITETSSPFRSIFSHSGKVANAGALEESDKQILEWAGKLELESMELRENSDKLIKVLNENSKTLCKSLNKFNQLLEQDAATNGNVKTLIKDLASQIENQLDKVSTAMLSKGDEKKTKSDSSYRQVLVEEISRYNSKITRHVTNKQHETEKSMRCTQEMLFNVGSQLEDVHKVLLSLSKDMHSLQTRQTALEMAFREKADHAYDRPDVSLNGTTLLHDMDEAHDKQRKKSVPPPRMMVTRSMKRRRSSSPTLSTSQNHNSEDNDDASHRLKRAARTIIPWEELRPDTLESEL
partner: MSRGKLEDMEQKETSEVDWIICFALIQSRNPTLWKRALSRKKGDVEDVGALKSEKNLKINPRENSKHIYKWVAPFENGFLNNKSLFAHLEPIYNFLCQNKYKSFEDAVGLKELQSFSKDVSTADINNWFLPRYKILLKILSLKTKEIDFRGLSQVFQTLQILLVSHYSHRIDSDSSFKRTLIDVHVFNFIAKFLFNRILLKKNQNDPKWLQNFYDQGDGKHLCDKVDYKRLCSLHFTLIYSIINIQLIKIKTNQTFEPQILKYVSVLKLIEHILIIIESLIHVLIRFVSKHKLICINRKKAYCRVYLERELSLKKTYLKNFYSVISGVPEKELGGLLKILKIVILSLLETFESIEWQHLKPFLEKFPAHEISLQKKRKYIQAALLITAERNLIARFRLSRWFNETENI
B2: Recombination protein 107 (Saccharomyces cerevisiae), P21651 (parent)
chain: B1 chain
partner: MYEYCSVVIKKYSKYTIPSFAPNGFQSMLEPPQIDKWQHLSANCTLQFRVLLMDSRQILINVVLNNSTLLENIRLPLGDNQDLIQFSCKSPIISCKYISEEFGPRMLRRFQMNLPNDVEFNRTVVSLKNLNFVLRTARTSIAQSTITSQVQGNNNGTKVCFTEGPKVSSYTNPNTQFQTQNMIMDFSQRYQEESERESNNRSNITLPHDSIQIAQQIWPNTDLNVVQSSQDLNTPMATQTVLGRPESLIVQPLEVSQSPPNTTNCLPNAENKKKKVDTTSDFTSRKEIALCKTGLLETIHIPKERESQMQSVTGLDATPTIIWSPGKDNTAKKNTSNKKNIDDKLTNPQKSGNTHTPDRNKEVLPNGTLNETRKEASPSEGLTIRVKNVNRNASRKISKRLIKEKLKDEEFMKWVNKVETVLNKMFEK
B3: Recombination protein 107 (Saccharomyces cerevisiae), P21651 (parent)
chain: B1 chain
partner: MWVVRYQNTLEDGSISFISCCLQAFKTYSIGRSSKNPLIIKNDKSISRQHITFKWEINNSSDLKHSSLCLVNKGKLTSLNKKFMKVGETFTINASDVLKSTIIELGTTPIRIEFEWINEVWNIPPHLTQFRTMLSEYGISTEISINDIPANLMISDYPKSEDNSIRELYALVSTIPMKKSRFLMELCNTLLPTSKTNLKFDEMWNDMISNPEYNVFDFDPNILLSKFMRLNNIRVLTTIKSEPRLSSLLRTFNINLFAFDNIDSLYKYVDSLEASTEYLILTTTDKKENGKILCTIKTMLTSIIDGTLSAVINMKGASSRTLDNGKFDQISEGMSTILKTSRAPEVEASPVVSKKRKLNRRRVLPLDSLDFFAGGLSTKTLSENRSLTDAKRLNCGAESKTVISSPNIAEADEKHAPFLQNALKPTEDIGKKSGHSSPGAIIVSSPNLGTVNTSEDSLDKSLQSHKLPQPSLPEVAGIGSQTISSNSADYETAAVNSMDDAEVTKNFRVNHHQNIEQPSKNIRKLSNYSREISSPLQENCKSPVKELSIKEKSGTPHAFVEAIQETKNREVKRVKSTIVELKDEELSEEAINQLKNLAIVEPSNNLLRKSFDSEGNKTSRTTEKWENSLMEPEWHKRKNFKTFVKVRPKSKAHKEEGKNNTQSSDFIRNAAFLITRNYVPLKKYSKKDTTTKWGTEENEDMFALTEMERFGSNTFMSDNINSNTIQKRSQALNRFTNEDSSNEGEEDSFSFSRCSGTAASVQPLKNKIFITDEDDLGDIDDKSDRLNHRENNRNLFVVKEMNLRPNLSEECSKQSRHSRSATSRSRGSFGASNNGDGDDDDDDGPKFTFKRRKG

Variants of: B1
Details: with mei4_yeast MEI4, P29467

Variant | effect of a mutation on the interaction
S30A | decreasing interaction strength
S30A;S271A | decreasing interaction strength
S271A | with no effect

Variants of: B2
Details: with re114_yeast REC114, P32841

Variant | effect of a mutation on the interaction
S30A | disrupting interaction strength
S30A;S271A | disrupting interaction strength
S271A | with no effect

Variants of: B3
Details: with xrs2_yeast XRS2, P33301

Variant | effect of a mutation on the interaction
S271A | decreasing interaction strength
S30A | disrupting interaction strength
S30A;S271A | disrupting interaction strength
